Target: β2-adrenergic receptor (β2AR) (human) (UniProt P07550)

cAMP formation (HitHunter cAMP assay) in β2AR-transfected HEK-293 cells, P4 alone 10^-9 to 10^-4 M, no isoproterenol: EC50: 210 nM
cAMP formation (HitHunter cAMP assay) in β2AR-transfected HEK-293 cells, P4 alone 10^-9 to 10^-4 M, no isoproterenol: increase in cAMP as percent of the maximum response to isoproterenol: < 20%
decrease of isoproterenol potency in the cAMP assay by 50 µM P4 in β2AR-transfected HEK-293 cells (pair interfered with: agonist-activated β2AR and endogenous Gαs): < 20 fold
reduction of the maximal isoproterenol-induced cAMP level by 50 µM P4 in β2AR-transfected HEK-293 cells (pair interfered with: agonist-activated β2AR and endogenous Gαs): 40%
Binder: AITTGGNTYYANSVKGRFTISRDNA [CDR2-NDP P4 (25-amino-acid nanobody-derived peptide from the CDR2 of Nb71)]
